The values below come from publication PMC8487046 (2021).

This assay addresses acetylated BSA (AcBSA) (bovine (from the name BSA), UniProt P02769 25-607, acetylated (lysyl acetylation); extent not stated). Description: SPR. In general terms: In SPR one partner is held on a chip, and binding of the other changes the refractive index at the surface.

acetylated BSA (AcBSA), sequence (P02769 25-607): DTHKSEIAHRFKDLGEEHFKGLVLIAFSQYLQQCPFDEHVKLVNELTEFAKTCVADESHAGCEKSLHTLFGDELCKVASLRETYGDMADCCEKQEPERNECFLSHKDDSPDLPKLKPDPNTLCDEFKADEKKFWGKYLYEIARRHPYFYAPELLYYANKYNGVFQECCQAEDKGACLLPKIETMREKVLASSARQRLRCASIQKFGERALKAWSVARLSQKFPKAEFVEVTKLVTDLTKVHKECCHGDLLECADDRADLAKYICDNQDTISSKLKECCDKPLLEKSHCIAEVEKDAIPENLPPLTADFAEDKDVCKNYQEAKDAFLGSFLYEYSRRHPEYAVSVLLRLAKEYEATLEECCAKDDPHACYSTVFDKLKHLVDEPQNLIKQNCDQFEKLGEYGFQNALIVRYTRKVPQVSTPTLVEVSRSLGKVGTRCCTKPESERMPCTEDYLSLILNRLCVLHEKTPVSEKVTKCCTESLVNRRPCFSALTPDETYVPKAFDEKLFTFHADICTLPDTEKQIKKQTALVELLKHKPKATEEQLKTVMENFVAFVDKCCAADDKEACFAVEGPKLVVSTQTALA

B1: SR‐F1(20‐421), SR‐F1 ectodomain (domain or fragment)
chain: SELDPKGQHVCVASSPSAELQCCAGWRQKDQECTIPICEGPDACQKDEVCVKPGLCRCKPGFFGAHCSSRCPGQYWGPDCRESCPCHPHGQCEPATGACQCQADRWGARCEFPCACGPHGRCDPATGVCHCEPGWWSSTCRRPCQCNTAAARCEQATGACVCKPGWWGRRCSFRCNCHGSPCEQDSGRCACRPGWWGPECQQQCECVRGRCSAASGECTCPPGFRGARCELPCPAGSHGVQCAHSCGRCKHNEPCSPDTGSCESCEPGWNGTQCQQPCLPGTFGESCEQQCPHCRHGEACEPDTGHCQRCDPGWLGPRCEDPCPTGTFGEDCGSTCPTCVQGSCDTVTGDCVCSAGYWGPSCNASCPAGFHGNNCSVPCECPEGLCHPVSGSCQPGSGSRDT
Molecule B1 yielded a Kd of 917 nM.

What is called Kd is the concentration at which binding is half-saturated. High values mean lower affinity, low ones higher affinity.
